{"source": "paper PMC9030869", "about": "“Interplay between Alba and Cren7 Regulates Chromatin Compaction in Sulfolobus solfataricus” (Biomolecules, 2022)", "binders": {"B1": {"name": "Sulfolobus solfataricus Alba2 (natural protein, S. solfataricus, UniProt Q97ZF4 1-89, looked up)", "chain": "MTEKLNEIVVRKTKNVEDHVLDVIVLFNQGIDEVILKGTGREISKAVDVYNSLKDRLGDGVQLVNVQTGSEVRDRRRISYILLRLKRVY", "notes": "Alba2 of Sulfolobus solfataricus, homologue of Alba1; construct obtained from Dr. Malcolm White (University of St. Andrews); It was obtained from Dr. Malcolm White; source: E. coli BL21(DE3), purified (HiTrap SPHP cation exchange, size exclusion chromatography)"}}, "target": "T1, Sulfolobus solfataricus Alba1 (S. solfataricus, UniProt P60849 1-97)", "T1 construct": "Alba1 of Sulfolobus solfataricus; construct obtained from Dr. Malcolm White (University of St. Andrews); It was obtained from Dr. Malcolm White; source: E. coli BL21(DE3), purified (HiTrap SPHP cation exchange, size exclusion chromatography)", "T1 sequence (looked up)": "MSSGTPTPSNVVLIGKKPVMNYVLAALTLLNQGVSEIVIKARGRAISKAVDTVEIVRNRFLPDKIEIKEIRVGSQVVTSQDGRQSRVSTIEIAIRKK", "assay": "SEC; equimolar amounts (~100 µM) of Alba1 and Alba2 mixed, then run on a TSKgel G3000SWxl column with 150 mM NaCl in Buffer A as mobile phase", "settings": "both partners purified"}
{"binder": "B1", "values": [{"measurement": "binding result", "value": "binds"}]}
